Results as given in patent US20160333095A1 (Genmab, published 2016).
Residue numbers refer to the chain shown, from its start. In names and notes the source's numbering stands.

B1: IgG1-huCD3-H1L3-LFLEDA (antibody, V domains shown)
VH: EVKLVESGGGLVQPGGSLRLSCAASGFTFNTYAMNWVRQAPGKGLEWVARIRSKYNNYATYYADSVKDRFTISRDDSKSSLYLQMNNLKTEDTAMYYCVRHGNFGNSYVSWFAYWGQGTLVTVSS
VL: QAVVTQEPSFSVSPGGTVTLTCRSSTGAVTTSNYANWVQQTPGQAFRGLIGGTNKRAPGVPARFSGSILGNKAALTITGAQADDESDYYCALWYSNLWVFGGGTKLTVL
B2: IgG1-huCD3-H4L3-LFLEDA (antibody, V domains shown)
VH: B1 VH with Q13K, G16R, S80I, N87S, L120M
VL: B1 VL
B3: IgG1-huCD3-H3L3-LFLEDA (antibody, V domains shown)
VH: B1 VH with Q13K, G16R, S80I, N87S
VL: B1 VL
B4: IgG1-huCD3-H4L1-LFLEDA (antibody, V domains shown)
VH: B1 VH with Q13K, G16R, S80I, N87S, L120M
VL: not shown
B5: IgG1-huCD3-H1L1-LFLEDA (antibody, V domains shown)
VH: B1 VH
VL: not shown
notes: also called IgG1-3huCD3-H1L1-LFLEDA; wild type IgG1-huCD3-H1L1-LFLEDA
B6: IgG1-huCD3-H1-LFLEDA-LF10L (antibody, V domains shown)
VH: B1 VH
VL: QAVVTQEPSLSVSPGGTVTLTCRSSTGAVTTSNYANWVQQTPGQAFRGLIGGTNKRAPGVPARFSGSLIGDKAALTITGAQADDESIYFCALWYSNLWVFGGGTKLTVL
notes: IgG1 with LFLEDA (L234F/L235E/D265A); tested as supernatant preparation; also called IgG1-huCD3-H1L1-LF10L (with LFLEDA)
B7: IgG1-huCD3-H1-LFLEDA-LT41K (antibody, V domains shown)
VH: B1 VH
VL: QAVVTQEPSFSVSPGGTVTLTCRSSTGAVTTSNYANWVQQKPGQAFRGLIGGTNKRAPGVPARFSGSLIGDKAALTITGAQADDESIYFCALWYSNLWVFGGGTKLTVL
notes: IgG1 with LFLEDA; supernatant preparation; also called T41K mutant
B8: IgG1-huCD3-H1-LFLEDA-LK55N (antibody, V domains shown)
VH: B1 VH
VL: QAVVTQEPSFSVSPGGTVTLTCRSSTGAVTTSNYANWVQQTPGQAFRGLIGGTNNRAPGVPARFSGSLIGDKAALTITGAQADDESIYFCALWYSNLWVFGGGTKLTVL
notes: IgG1 with LFLEDA; supernatant preparation; also called K55N mutant
B9: IgG1-huCD3-H1-LFLEDA-LLKNH (antibody, V domains shown)
VH: B1 VH
VL: B1 VL with F10L, T41K, K55N, I68L, L69I, N71D, D87I, Y89F, L97H
notes: IgG1 with LFLEDA; supernatant preparation; also called LKNH mutant
B10: IgG1-huCD3-H1-LFLEDA-LL97H (antibody, V domains shown)
VH: B1 VH
VL: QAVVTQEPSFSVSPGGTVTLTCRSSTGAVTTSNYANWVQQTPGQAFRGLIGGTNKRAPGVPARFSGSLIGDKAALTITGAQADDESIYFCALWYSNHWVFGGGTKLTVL
notes: IgG1 with LFLEDA; supernatant preparation
B11: bsIgG1 huCD3-H3L1×HER2-LFLEDA (bispecific antibody, V domains shown)
VH 1: B1 VH with Q13K, G16R, S80I, N87S
VL 1: not shown
VH 2: QVQLVQSGAEVKKPGASVKVSCKASGYTFTNYGISWVRQAPGQGLEWMGWLSAYSGNTIYAQKLQGRVTMTTDTSTTTAYMELRSLRSDDTAVYYCARDRIVVRPDYFDYWGQGTLVTVSS
VL 2: EIVLTQSPATLSLSPGERATLSCRASQSVSSYLAWYQQKPGQAPRLLIYDASNRATGIPARFSGSGSGTDFTLTISSLEPEDFAVYYCQQRSNWPRTFGQGTKVEIK
notes: LFLEDA = L234F/L235E/D265A; also called bsIgG1 huCD3-H3L1-LFLEDA
B12: bsIgG1 CD3×HER2 (bispecific antibody, V domains shown)
VH 1: B1 VH with V5L, G15K, R19K, K78Q, S80I, S125A
VL 1: QAVVTQESALTTSPGETVTLTCRSSTGAVTTSNYANWVQEKPDHLFTGLIGGTNKRAPGVPARFSGSLIGDKAALTITGAQTEDEAIYFCALWYSNLWVFGGGTKLTVL
VH 2: B11 VH 2
VL 2: B11 VL 2
B13: IgG1-huCD3-H1L1 (antibody, V domains shown)
VH: B1 VH
VL: not shown
notes: IgG1,λ with wild-type Fc region
B14: IgG1-CD3-LFLEDA (antibody, V domains shown)
VH: B1 VH with V5L, G15K, R19K, K78Q, S80I, S125A
VL: B12 VL 1
notes: also called chimeric, parental CD3 antibody
B15: IgG1-huCD3-H3L3 (antibody, V domains shown)
VH: B1 VH with Q13K, G16R, S80I, N87S
VL: B1 VL
notes: as for B13
B16: IgG1-huCD3-H1L3 (antibody, V domains shown)
VH: B1 VH
VL: B1 VL
notes: as for B13
B17: IgG1-huCD3-H1L2 (antibody, V domains shown)
VH: B1 VH
VL: B1 VL with D87I, Y89F
notes: as for B13
B18: IgG1-huCD3-H3L1-LFLEDA (antibody, V domains shown)
VH: B1 VH with Q13K, G16R, S80I, N87S
VL: not shown
B19: IgG1-huCD3-H4L1 (antibody, V domains shown)
VH: B1 VH with Q13K, G16R, S80I, N87S, L120M
VL: not shown
notes: as for B13
B20: bsIgG1-huCD3-H4L3×HER2-LFLEDA (bispecific antibody, V domains shown)
VH 1: B1 VH with Q13K, G16R, S80I, N87S, L120M
VL 1: B1 VL
VH 2: B11 VH 2
VL 2: B11 VL 2
notes: LFLEDA = L234F/L235E/D265A
B21: bsIgG1-huCD3-H1L1×HER2-LFLEDA (bispecific antibody, V domains shown)
VH 1: B1 VH
VL 1: not shown
VH 2: B11 VH 2
VL 2: B11 VL 2
notes: LFLEDA = L234F/L235E/D265A
B22: bsIgG1-huCD3-H1L3×HER2-LFLEDA (bispecific antibody, V domains shown)
VH 1: B1 VH
VL 1: B1 VL
VH 2: B11 VH 2
VL 2: B11 VL 2
notes: LFLEDA = L234F/L235E/D265A
B23: bsIgG1-huCD3-H3L3×HER2-LFLEDA (bispecific antibody, V domains shown)
VH 1: B1 VH with Q13K, G16R, S80I, N87S
VL 1: B1 VL
VH 2: B11 VH 2
VL 2: B11 VL 2
notes: LFLEDA = L234F/L235E/D265A
B24: bsIgG1-huCD3-H4L1×HER2-LFLEDA (bispecific antibody, V domains shown)
VH 1: B1 VH with Q13K, G16R, S80I, N87S, L120M
VL 1: not shown
VH 2: B11 VH 2
VL 2: B11 VL 2
notes: LFLEDA = L234F/L235E/D265A
B25: bsIgG1-huCD3-H1L1-LK55N/HER2-LFLEDA (bispecific antibody, V domains shown)
VH 1: B1 VH
VL 1: not shown
VH 2: B11 VH 2
VL 2: B11 VL 2
notes: LFLEDA = L234F/L235E/D265A; also called bsIgG1-huCD3-LK55N/HER2-LFLEDA

Target: T1, cynomolgus CD3 (cynomolgus monkey, UniProt Q95LI5 22-198)
T1 construct: also called CD3 on the cynomolgus T-cell line HSC-F; cynomolgus CD3ε (epsilon)
Assay: flow cytometry on HSC-F cells, FIG. 7A
Procedure: (§1) In addition to the non-activating mutations, LFLEDA, the antibody variants contained F405L or K409R mutations as described in Example 1.
(§2) Cells (1×10⁵ cells/well) were incubated in polystyrene 96-well round-bottom plates (Greiner bio-one 650101) with serial dilutions of antibody preparations (range 5 to 10,000 ng/mL in 3-fold dilutions) in 100 μL PBS/0.1% BSA/0.02% azide at 4° C. for 30 min.
(§3) After washing twice in PBS/0.1% BSA/0.02% azide, cells were incubated in 100 μL with secondary antibody at 4° C. for 30 min. As a secondary antibody, R-Phycoerythrin (PE)-conjugated goat-anti-human IgG F(ab′)2 (109-116-098, Jackson ImmunoResearch Laboratories, Inc., West Grove, Pa.) diluted 1/100 in PBS/0.1% BSA/0.02% azide, was used for all experiments. Next, cells were washed twice in PBS/0.1% BSA/0.02% azide, re-suspended in 150 μL PBS/0.1% BSA/0.02% azide and analyzed on a FACS Cantoll (BD Biosciences). Binding curves were analyzed using non-linear regression (sigmoidal dose-response with variable slope) using GraphPad Prism V 5.04 software (GraphPad Software, San Diego, Calif., USA).

T1 sequence (Q95LI5 22-198): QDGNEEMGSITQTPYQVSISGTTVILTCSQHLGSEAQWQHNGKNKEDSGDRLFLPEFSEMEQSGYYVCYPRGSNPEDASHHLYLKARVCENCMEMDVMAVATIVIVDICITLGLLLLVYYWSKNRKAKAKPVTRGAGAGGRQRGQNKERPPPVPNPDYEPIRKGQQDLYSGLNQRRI

Binder | binding result
B1 | binds
B2 | binds
B3 | binds
B4 | binds
B5 | binds

Target: T2, human CD3 (human, UniProt P07766 22-207)
T2 construct: also called CD3 on the human T-cell line Jurkat; CD3 on human T cells
Assay: flow cytometry on Jurkat cells, supernatant preparations, FIG. 21
Procedure: (§4) Jurkat cells (DSMZ, Brunswick, Germany) were thawed at 37° C. and washed once in 30 mL PBS and spun for 10 minutes at 300×g at 4° C. Cell pellet was resuspended in 25 mL of PBS/0.1% BSA/0.02% azide at a final concentration of 0.8×10⁶ cells/mL. 100 μL of this cell suspension (0.8×10⁵ cells/well) was transferred into polystyrene 96-well round-bottom plates (Greiner Bio-one, Alphen a/d Rijn, The Netherlands) and incubated with serial dilutions of supernatant preparations (range 3 to 10,000 ng/mL in 3-fold dilutions) in PBS/0.1% BSA/0.02% azide at 4° C. for 30 minutes. After washing three times in PBS/0.1% BSA/0.02% azide, Jurkat cells were incubated in 50 μL with secondary antibody at 4° C. for 30 min. As a secondary antibody, R-Phycoerythrin (PE)-conjugated goat-anti-human IgG F(ab′)2 (Jackson ImmunoResearch Laboratories, Inc., West Grove, Pa.) diluted 1/200 in PBS/0.1% BSA/0.02% azide, was used for all experiments. Next, Jurkat cells were washed twice in PBS/0.1% BSA/0.02% azide, re-suspended in 150 μL PBS/0.1% BSA/0.02% azide and analyzed on a FACS Cantoll (BD Biosciences). Binding curves were analyzed using nonlinear regression (sigmoidal dose-response with variable slope) using GraphPad Prism V 5.04 software (GraphPad Software, San Diego, Calif., USA).

T2 sequence (P07766 22-207 limits assumed): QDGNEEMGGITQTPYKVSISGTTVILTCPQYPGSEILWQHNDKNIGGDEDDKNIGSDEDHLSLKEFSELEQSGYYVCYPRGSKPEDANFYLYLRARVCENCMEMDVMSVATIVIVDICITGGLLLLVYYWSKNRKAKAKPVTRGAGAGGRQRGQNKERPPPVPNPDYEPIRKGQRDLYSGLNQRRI

Binder | EC50 [µg/mL]
B6 | 0.169
B7 | 0.096
B8 | 0.531
B9 | 0.438
B10 | 0.095

Target: T1, cynomolgus CD3
Assay: flow cytometry on HSC-F cells, FIG. 2B
Procedure: as §1, §2, §3

Binder | binding result
B11 | binds
B12 | binds

Target: T2, human CD3
Assay: flow cytometry on Jurkat cells, FIG. 21
Procedure: as §4

Binder | fold lower apparent affinity than wild type IgG1-huCD3-H1L1-LFLEDA [fold]
B8 | 5
B9 | 5

Target: T1, cynomolgus CD3
Assay: flow cytometry on HSC-F cells, FIG. 2A
Procedure: as §1, §2, §3

Binder | binding result
B13 | binds
B14 | binds
B15 | binds
B16 | binds
B17 | binds
B18 | binds
B19 | binds

Target: T1, cynomolgus CD3
Assay: flow cytometry on HSC-F cells, FIG. 7B
Procedure: as §1, §2, §3

Binder | binding result
B20 | binds
B21 | binds
B22 | binds
B23 | binds
B24 | binds

Target: T2, human CD3
Assay: flow cytometry on isolated human T cells, FIG. 22
Procedure: As a secondary antibody, R-Phycoerythrin (PE)-conjugated goat-anti-human IgG F(ab′)2 (Jackson ImmunoResearch Laboratories, Inc., West Grove, Pa.) diluted 1/200 in PBS/0.1% BSA/0.02% azide, was used for all experiments. […] Binding curves were analyzed using nonlinear regression (sigmoidal dose-response with variable slope) using GraphPad Prism V 5.04 software (GraphPad Software, San Diego, Calif., USA).

Binder | EC50 [µg/mL]
B25 | 0.61
